Measured values as given in US20260241049A1, “Radiopharmaceutical Compositions Targeting Glypican-3 and Uses Thereof” (RayzeBio, Inc., priority 2023, published 2026).
One block for each binder: values may come before it. Starred links: 1 amine or outer side, 2 acyl side, 3 side chain; linkers in the order of their positions; H or OH if unused. Positions of bridges follow the written chain, without caps; N, C: chain ends. Non-standard residues stand in square brackets, D forms with d. Primed or numbered codes have the meaning given here. *: point of attachment. DOTA‑Lu = DOTA-lutetium(175) amide on the side-chain amine, O=C([O-])CN1CCN(CC(=O)[O-])CCN(CC(=O)*)CCN(CC(=O)[O-])CC1.[175Lu+3]; MeA4paa = 3-(1-(carboxymethyl)piperidin-4-yl)-2-(methylamino)propanoic acid, CN([C@@H](CC1CCN(CC(=O)[*:3])CC1)C(=O)[*:2])[*:1]; MeHseMe″ = (2S)-4-methoxy-2-(methylamino)butanoic acid (N-methyl-O-methyl-L-homoserine), COCC[C@@H](C(=O)[*:2])N(C)[*:1]; Thr(Me)(3) = TMe, O-methyl-L-threonine, CO[C@H](C)[C@H](N[*:1])C(=O)[*:2]; Hgn = 2,6-diamino-6-oxohexanoic acid, NC(=O)CCC[C@H](N[*:1])C(=O)[*:2]; HseMe = 2-amino-4-methoxybutanoic acid, COCC[C@H](N[*:1])C(=O)[*:2]; Phe(4-(1-Me-pyrazol-4-yl)) = Cn1cc(-c2ccc(C[C@H](N)C(=O)O)cc2)cn1; NMeAla(isoquinolin-7-yl) = CN[C@@H](Cc1ccc2ccncc2c1)C(=O)O; 3Pal(6-Ph) = N[C@@H](Cc1ccc(-c2ccccc2)nc1)C(=O)O; Phe(4-COOH) = N[C@@H](Cc1ccc(C(=O)O)cc1)C(=O)O; NMe2Nal = CN[C@@H](Cc1ccc2ccccc2c1)C(=O)O; NMeI = CC[C@H](C)[C@H](NC)C(=O)O; NMeQ = CN[C@@H](CCC(N)=O)C(=O)O; NMeL = CN[C@@H](CC(C)C)C(=O)O; MeD = methyl-L-aspartic acid; NMeK = CN[C@@H](CCCCN)C(=O)O; NMeC = CN[C@@H](CS)C(=O)O; NMeA = CN[C@@H](C)C(=O)O

Biological target: T1, human Glypican3 (R&D systems, catalog number: 2119-GP) (human, UniProt P51654 25-559, limits assumed)
T1 construct: Bought recombinant protein, amine-coupled to the chip in Method B-1; also called GPC3; hGPC3
Assay: SPR (Biacore T200), Method B-1: human Glypican3 amine-coupled to CM3 chip, peptide as analyte
Procedure: A CM3 sensor chip (Cytiva) was inserted into a Biacore T200 (Cytiva), primed three times with a running buffer: HBS-P+, pH 7.4 (Cytiva), and equilibrated at a flow rate of 30 μL/min. Ligand immobilization was performed at a flow rate of 10 μL/min. 50 μL each of 60 mM EDC solution (Cytiva) and 650 mM NHS solution (Cytiva) were mixed, and then reacted at a flow rate of 10 μL/min for 420 seconds, 150 μL of 0.2 μM human Glypican3 (R&D systems, catalog number: 2119-GP) solution which was prepared by diluting with 10 mM acetic acid solution (pH 5.0), was reacted at a flow rate of 10 μL/min for 420 seconds, and Glypican3 was immobilized on the CM3 sensor chip. After immobilization, 1.0 M ethanolamine aqueous solution (Cytiva) was allowed to react for 420 seconds at a flow rate of 10 μL/min for capping. A peptide lysate prepared to 10 mM in DMSO solution was diluted with running buffer to a final concentration of 10 μM peptide lysate. […] Using the above samples, peptide kinetics for Glypican3 was obtained by SPR measurement. Kinetics evaluation of Glypican3 was performed by SPR measurements at a flow rate of 10 μL/min, setting the association time to 120 seconds and the disassociation time to 600 seconds.
The obtained data by Method B-1, Method B-2, Method B-3 and Method B-4 were analyzed by follow. Single Cycle Kinetics was used as the kinetics evaluation model, and curve fitting was performed using Biacore T200 Evaluation Software Version 3.0 (Cytiva).

B1: Macrocyclic peptide of Example 2-2 (SEQ ID No. 3) (peptide)
peptide: {CH2CO}-[NMeK](Ac)[NMeI]D[NMeQ][Phe(4-COOH)]II[Phe(4-COOH)][NMe2Nal]G[Phe(4-(1-Me-pyrazol-4-yl))][NMeC]-NH2
modifications: thioether N-12
SMILES: CC[C@H](C)[C@@H]1NC(=O)[C@H](Cc2ccc(C(=O)O)cc2)NC(=O)[C@H](CCC(N)=O)N(C)C(=O)[C@H](CC(=O)O)NC(=O)[C@H]([C@@H](C)CC)N(C)C(=O)[C@H](CCCCNC(C)=O)N(C)C(=O)CSC[C@@H](C(N)=O)N(C)C(=O)[C@H](Cc2ccc(-c3cnn(C)c3)cc2)NC(=O)CNC(=O)[C@H](Cc2ccc3ccccc3c2)N(C)C(=O)[C@H](Cc2ccc(C(=O)O)cc2)NC(=O)[C@H]([C@@H](C)CC)NC1=O
Kd: 1.5 nM

B2: Lu-C-1 (peptide)
peptide: Ac-[NMeK](DOTA‑Lu)[NMeI]D[NMeQ][Phe(4-COOH)]IIY[NMeAla(isoquinolin-7-yl)]G[3Pal(6-Ph)][NMeC]-NH2
modifications: bridge N-12; not fully specified (bridges); printed as MeK(DOTA-Lu)-MeI-D-MeQ-F4COO-I-I-Y-MeNal27N-G-3Py6Ph-MeC-NH2
Kd: 0.29 nM

B3: Macrocyclic peptide of Example 2-1 (SEQ ID No. 2) (peptide)
peptide: {CH2CO}-[NMeK](Ac)[NMeI]D[NMeQ][Phe(4-COOH)]II[Phe(4-COOH)][NMe2Nal]G[3Pal(6-Ph)][NMeC]-NH2
modifications: thioether N-12
SMILES: CC[C@H](C)[C@@H]1NC(=O)[C@H](Cc2ccc(C(=O)O)cc2)NC(=O)[C@H](CCC(N)=O)N(C)C(=O)[C@H](CC(=O)O)NC(=O)[C@H]([C@@H](C)CC)N(C)C(=O)[C@H](CCCCNC(C)=O)N(C)C(=O)CSC[C@@H](C(N)=O)N(C)C(=O)[C@H](Cc2ccc(-c3ccccc3)nc2)NC(=O)CNC(=O)[C@H](Cc2ccc3ccccc3c2)N(C)C(=O)[C@H](Cc2ccc(C(=O)O)cc2)NC(=O)[C@H]([C@@H](C)CC)NC1=O
Kd: 0.5 nM

B4: Macrocyclic peptide of Example 2-5 (SEQ ID No. 8) (peptide)
peptide: {CH2CO}-[NMeQ][NMeQ]D[NMeQ][Phe(4-COOH)]II[Phe(4-COOH)][NMe2Nal]G[Phe(4-(1-Me-pyrazol-4-yl))][NMeC]-NH2
modifications: thioether N-12
SMILES: CC[C@H](C)[C@@H]1NC(=O)[C@H](Cc2ccc(C(=O)O)cc2)NC(=O)[C@H](CCC(N)=O)N(C)C(=O)[C@H](CC(=O)O)NC(=O)[C@H](CCC(N)=O)N(C)C(=O)[C@H](CCC(N)=O)N(C)C(=O)CSC[C@@H](C(N)=O)N(C)C(=O)[C@H](Cc2ccc(-c3cnn(C)c3)cc2)NC(=O)CNC(=O)[C@H](Cc2ccc3ccccc3c2)N(C)C(=O)[C@H](Cc2ccc(C(=O)O)cc2)NC(=O)[C@H]([C@@H](C)CC)NC1=O
Kd: 2.6 nM

B8: Macrocyclic peptide of Example 2-8 (SEQ ID No. 11) (peptide)
peptide: {CH2CO}-[NMeQ][MeHseMe″]D[NMeQ][Phe(4-COOH)]II[Phe(4-COOH)][NMe2Nal]G[Phe(4-(1-Me-pyrazol-4-yl))][NMeC]-NH2
modifications: thioether N-12
SMILES: CC[C@H](C)[C@@H]1NC(=O)[C@H](Cc2ccc(C(=O)O)cc2)NC(=O)[C@H](CCC(N)=O)N(C)C(=O)[C@H](CC(=O)O)NC(=O)[C@H](CCOC)N(C)C(=O)[C@H](CCC(N)=O)N(C)C(=O)CSC[C@@H](C(N)=O)N(C)C(=O)[C@H](Cc2ccc(-c3cnn(C)c3)cc2)NC(=O)CNC(=O)[C@H](Cc2ccc3ccccc3c2)N(C)C(=O)[C@H](Cc2ccc(C(=O)O)cc2)NC(=O)[C@H]([C@@H](C)CC)NC1=O
Kd: 1.3 nM

B10: Macrocyclic peptide of Example 2-7 (SEQ ID No. 10) (peptide)
peptide: {CH2CO}-[NMeQ][NMeL]D[NMeQ][Phe(4-COOH)]II[Phe(4-COOH)][NMe2Nal]G[Phe(4-(1-Me-pyrazol-4-yl))][NMeC]-NH2
modifications: thioether N-12
SMILES: CC[C@H](C)[C@@H]1NC(=O)[C@H](Cc2ccc(C(=O)O)cc2)NC(=O)[C@H](CCC(N)=O)N(C)C(=O)[C@H](CC(=O)O)NC(=O)[C@H](CC(C)C)N(C)C(=O)[C@H](CCC(N)=O)N(C)C(=O)CSC[C@@H](C(N)=O)N(C)C(=O)[C@H](Cc2ccc(-c3cnn(C)c3)cc2)NC(=O)CNC(=O)[C@H](Cc2ccc3ccccc3c2)N(C)C(=O)[C@H](Cc2ccc(C(=O)O)cc2)NC(=O)[C@H]([C@@H](C)CC)NC1=O
Kd: 6.8 nM

B11: Macrocyclic peptide of Example 2-6 (SEQ ID No. 9) (peptide)
peptide: {CH2CO}-[NMeA][NMeQ]D[NMeQ][Phe(4-COOH)]II[Phe(4-COOH)][NMe2Nal]G[Phe(4-(1-Me-pyrazol-4-yl))][NMeC]-NH2
modifications: thioether N-12
SMILES: CC[C@H](C)[C@@H]1NC(=O)[C@H](Cc2ccc(C(=O)O)cc2)NC(=O)[C@H](CCC(N)=O)N(C)C(=O)[C@H](CC(=O)O)NC(=O)[C@H](CCC(N)=O)N(C)C(=O)[C@H](C)N(C)C(=O)CSC[C@@H](C(N)=O)N(C)C(=O)[C@H](Cc2ccc(-c3cnn(C)c3)cc2)NC(=O)CNC(=O)[C@H](Cc2ccc3ccccc3c2)N(C)C(=O)[C@H](Cc2ccc(C(=O)O)cc2)NC(=O)[C@H]([C@@H](C)CC)NC1=O
Kd: 2.7 nM

Now from value to binder:

Kd: 2.9 nM
B5: Macrocyclic peptide of Example 2-12 (SEQ ID No. 15) (peptide)
peptide: {CH2CO}-[NMeQ][NMeQ]D[MeA4paa][Phe(4-COOH)]II[Phe(4-COOH)][NMe2Nal]G[Phe(4-(1-Me-pyrazol-4-yl))][NMeC]-NH2
modifications: thioether N-12
SMILES: CC[C@H](C)[C@@H]1NC(=O)[C@H](Cc2ccc(C(=O)O)cc2)NC(=O)[C@H](CC2CCN(CC(=O)O)CC2)N(C)C(=O)[C@H](CC(=O)O)NC(=O)[C@H](CCC(N)=O)N(C)C(=O)[C@H](CCC(N)=O)N(C)C(=O)CSC[C@@H](C(N)=O)N(C)C(=O)[C@H](Cc2ccc(-c3cnn(C)c3)cc2)NC(=O)CNC(=O)[C@H](Cc2ccc3ccccc3c2)N(C)C(=O)[C@H](Cc2ccc(C(=O)O)cc2)NC(=O)[C@H]([C@@H](C)CC)NC1=O

Kd: 7.2 nM
B6: Macrocyclic peptide of Example 2-9 (SEQ ID No. 12) (peptide)
peptide: {CH2CO}-[NMeQ][HseMe]D[NMeQ][Phe(4-COOH)]II[Phe(4-COOH)][NMe2Nal]G[Phe(4-(1-Me-pyrazol-4-yl))][NMeC]-NH2
modifications: thioether N-12
SMILES: CC[C@H](C)[C@@H]1NC(=O)[C@H](Cc2ccc(C(=O)O)cc2)NC(=O)[C@H](CCC(N)=O)N(C)C(=O)[C@H](CC(=O)O)NC(=O)[C@H](CCOC)NC(=O)[C@H](CCC(N)=O)N(C)C(=O)CSC[C@@H](C(N)=O)N(C)C(=O)[C@H](Cc2ccc(-c3cnn(C)c3)cc2)NC(=O)CNC(=O)[C@H](Cc2ccc3ccccc3c2)N(C)C(=O)[C@H](Cc2ccc(C(=O)O)cc2)NC(=O)[C@H]([C@@H](C)CC)NC1=O

Kd: 2.5 nM
B7: Macrocyclic peptide of Example 2-11 (SEQ ID No. 14) (peptide)
peptide: {CH2CO}-[NMeQ][NMeQ]K(Ac)[NMeQ][Phe(4-COOH)]II[Phe(4-COOH)][NMe2Nal]G[Phe(4-(1-Me-pyrazol-4-yl))][NMeC]-NH2
modifications: thioether N-12
SMILES: CC[C@H](C)[C@@H]1NC(=O)[C@H](Cc2ccc(C(=O)O)cc2)NC(=O)[C@H](CCC(N)=O)N(C)C(=O)[C@H](CCCCNC(C)=O)NC(=O)[C@H](CCC(N)=O)N(C)C(=O)[C@H](CCC(N)=O)N(C)C(=O)CSC[C@@H](C(N)=O)N(C)C(=O)[C@H](Cc2ccc(-c3cnn(C)c3)cc2)NC(=O)CNC(=O)[C@H](Cc2ccc3ccccc3c2)N(C)C(=O)[C@H](Cc2ccc(C(=O)O)cc2)NC(=O)[C@H]([C@@H](C)CC)NC1=O

Kd: 2.2 nM
B9: Macrocyclic peptide of Example 2-10 (SEQ ID No. 13) (peptide)
peptide: {CH2CO}-[NMeQ][NMeQ][Hgn][NMeQ][Phe(4-COOH)]II[Phe(4-COOH)][NMe2Nal]G[Phe(4-(1-Me-pyrazol-4-yl))][NMeC]-NH2
modifications: thioether N-12
SMILES: CC[C@H](C)[C@@H]1NC(=O)[C@H](Cc2ccc(C(=O)O)cc2)NC(=O)[C@H](CCC(N)=O)N(C)C(=O)[C@H](CCCC(N)=O)NC(=O)[C@H](CCC(N)=O)N(C)C(=O)[C@H](CCC(N)=O)N(C)C(=O)CSC[C@@H](C(N)=O)N(C)C(=O)[C@H](Cc2ccc(-c3cnn(C)c3)cc2)NC(=O)CNC(=O)[C@H](Cc2ccc3ccccc3c2)N(C)C(=O)[C@H](Cc2ccc(C(=O)O)cc2)NC(=O)[C@H]([C@@H](C)CC)NC1=O

Kd: 2.8 nM
Binder: {CH2CO}-[NMeQ][NMeQ]D[MeD][Phe(4-COOH)]II[Phe(4-COOH)][NMe2Nal]G[Phe(4-(1-Me-pyrazol-4-yl))][NMeC]-NH2 (thioether N-12) [Macrocyclic peptide of Example 2-13 (SEQ ID No. 16)]

Kd: 1.8 nM
Binder: {CH2CO}-[NMeQ][NMeQ]D[NMeQ][Phe(4-COOH)][Thr(Me)(3)]I[Phe(4-COOH)][NMe2Nal]G[Phe(4-(1-Me-pyrazol-4-yl))][NMeC]-NH2 (thioether N-12) [Macrocyclic peptide of Example 2-15 (SEQ ID No. 18)]
